Patent US20040110252A1, “Yeast-based assay” (priority 2000, published 2004)
Read-outs that look alike come from different tables or passages of the source.

What was measured:
Sz. pombe cells = conditions: cited from earlier work
S. cerevisiae cells = conditions: cited from earlier work
[1] = molecular target: P-factor receptor (encoded by the mam2 gene) (Schizosaccharomyces pombe) (UniProt Q00619)

colony formation of sxa2>ura4 reporter cells on plates lacking uracil with different concentrations of P-factor [1] [units/ml]	Substance	Sensitivity of cells to the toxin (Sz. pombe cells)	Sensitivity of cells to the toxin (S. cerevisiae cells; S. cerevisiae spheroplasts (cell wall enzymatically removed))	Sensitivity of cells to the toxin (S. cerevisiae cells; intact S. cerevisiae cells)
	Diphtheria toxin	sensitive	sensitive	resistant
> 10	P-factor mating pheromone (peptide)			
